± gives the uncertainty stated by the source.

The data set is described as follows: self-splicing fitness, log relative to wild type (ln ratio); higher = more splicing; Tetrahymena group I intron in knt gene, E. coli kanamycin selection, DiMSum; sequences stand for … in CUCUCU…GGAGGGAAAAGUUAUCAGGCAUGCACCUGGUAGCUAGUCUUUAAACCAAUAGAUUGCAUCGGUUUAAAAGGCAAGACCGUCAAAUUGCGGGAAAGGGGUCAACAGCCGUUCAGUACCAAGUCUCAGGGGAAACUUUGAGAUGGCCUUGCAAAGGGUAUGGUAAUAAGCUGACGGACAUGGUCCUAACCACGCAGCCAAGUCCUAAGUCAACAGAUCUUCUGUUGAUAUGGAUGCAGUUCACAGACUAAAUGUCGGUCGGGGAAGAUGUAUUCUUCUCAUAAGAUAUAGUCGGACCUCUCCUUAAUGGGAGCUAGCGGAUGAAGUGAUGCAACACUGGAGCCGCUGGGAACUAAUUUGUAUGCGAAAGUAUAUUGAUUAGUUUUGGAGUACUCGUGGUCG
The method in brief: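 Colonies from six replicate transformations of E. coli BL21(DE3) were pooled and amplicon-sequenced on an Illumina HiSeq 2500. The library placed an intron with all eight P1ex-region nucleotides randomised inside the knt kanamycin-resistance gene on pET-22b(+), and cells grew overnight at 37°C or 30°C on LB agar with or without 25 μg/mL kanamycin (plus 100 μg/mL carbenicillin, 50 μM IPTG, 0.2% rhamnose). Fitness is the DiMSum error-weighted combination of wild-type-normalised replicate fold changes, kanamycin versus none.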

In the case of GCGGAGCAAUAUUACGGCGA, the “self-splicing fitness (ln)” value runs as follows: (30 °C) -1.5 ± 0.23; (37 °C) -1.29 ± 0.28.
For CAGUAGCAAUAUUACGAUAU, the “self-splicing fitness (ln)” value is, setting by setting: (30 °C) -2.7 ± 0.2; (37 °C) -1.88 ± 0.21.
For ACGGAGCAAUAUUACGAUUU the same measures were -2.33 ± 0.12 and -1.65 ± 0.15.
For GCCCAGCAAUAUUACGGGUG the same measures were -1.58 ± 0.048 and -0.819 ± 0.054.
As for UGUGAGCAAUAUUACGGAUA, the “self-splicing fitness (ln)” value (30 °C) is -1.65 ± 0.35 and the “self-splicing fitness (ln)” value (37 °C) was -1.64 ± 0.34.
On to AACAAGCAAUAUUACGGCCG, for which the “self-splicing fitness (ln)” value by setting is: (30 °C) -0.739 ± 0.12; (37 °C) 0.121 ± 0.15.
For AGGAAGCAAUAUUACGAGCU the same measures were -0.467 ± 0.082 and 0.0249 ± 0.1.
As to AUAGAGCAAUAUUACGCUCC, the “self-splicing fitness (ln)” value was -0.896 ± 0.37 (30 °C) and -1.91 ± 0.41 (37 °C).
CGUAAGCAAUAUUACGGUGC: the “self-splicing fitness (ln)” value (30 °C) is -2.65 ± 0.15 and the “self-splicing fitness (ln)” value (37 °C) was -3.7 ± 0.31.
ACAGAGCAAUAUUACGGUAU: the “self-splicing fitness (ln)” value (30 °C) is -4.21 ± 0.36 and the “self-splicing fitness (ln)” value (37 °C) is -3.75 ± 0.26.
The like results for AGGGAGCAAUAUUACGUACG were, in that order, -3.78 ± 0.4 and -2.2 ± 0.42.
CCUGAGCAAUAUUACGUUGG: the “self-splicing fitness (ln)” value (30 °C) was -4.56 ± 0.29 and the “self-splicing fitness (ln)” value (37 °C) was -2.16 ± 0.16.
As for GUUCAGCAAUAUUACGGGCU, the “self-splicing fitness (ln)” value (37 °C) is -1.56 ± 0.28.
For GACUAGCAAUAUUACGGCGG, the “self-splicing fitness (ln)” value reads like this: (30 °C) -3.72 ± 0.21; (37 °C) -2.14 ± 0.13.
For CCCAAGCAAUAUUACGCAUU, the “self-splicing fitness (ln)” value reads like this: (30 °C) -3.82 ± 0.2; (37 °C) -2.04 ± 0.19.
Turning to ACGUAGCAAUAUUACGACGG, the “self-splicing fitness (ln)” value was -0.92 ± 0.11 (30 °C) and -0.526 ± 0.13 (37 °C).
For ACUGAGCAAUAUUACGAGCG the same measures were -2.44 ± 0.14 and -0.615 ± 0.13.
For UAUUAGCAAUAUUACGCAGA the same measures were -1.96 ± 0.28 and -1.63 ± 0.23.
The like results for GUCGAGCAAUAUUACGUGCG were, in that order, -2.9 ± 0.17 and -2 ± 0.17.
As for CGGGAGCAAUAUUACGGCAA, the “self-splicing fitness (ln)” value (30 °C) was -3.64 ± 0.43.
On to GAGGAGCAAUAUUACGUGAA, for which the “self-splicing fitness (ln)” value runs as follows: (30 °C) -2.45 ± 0.3; (37 °C) -1.74 ± 0.3.
On to CGCUAGCAAUAUUACGUGGU, for which the “self-splicing fitness (ln)” value (30 °C) was -3.55 ± 0.27 and the “self-splicing fitness (ln)” value (37 °C) is -2.61 ± 0.26.
For the sequence AUCGAGCAAUAUUACGUUAC, the “self-splicing fitness (ln)” value was -3.04 ± 0.28 (30 °C) and -1.82 ± 0.27 (37 °C).
For the sequence ACAAAGCAAUAUUACGCAAG, the “self-splicing fitness (ln)” value reads like this: (30 °C) -1.45 ± 0.079; (37 °C) 0.00248 ± 0.087.
For UUCCAGCAAUAUUACGGUGU the same measures were -1.19 ± 0.092 and -1.1 ± 0.13.
The like results for AUAAAGCAAUAUUACGUGAG were, in that order, -1.27 ± 0.076 and -1.07 ± 0.12.
For the sequence GCUCAGCAAUAUUACGUUAA, the “self-splicing fitness (ln)” value reads like this: (30 °C) -1.32 ± 0.17; (37 °C) -1.28 ± 0.16.
The like results for GUGCAGCAAUAUUACGGCUG were, in that order, -4.5 ± 0.34 and -2.36 ± 0.28.
On to GACAAGCAAUAUUACGCGUU, for which the “self-splicing fitness (ln)” value (30 °C) is -4.47 ± 0.34 and the “self-splicing fitness (ln)” value (37 °C) is -3 ± 0.35.
For CUAUAGCAAUAUUACGUAAG the same measures were -0.717 ± 0.058 and 0.183 ± 0.084.
Regarding CGCGAGCAAUAUUACGGCAC, under “37 °C”, the “self-splicing fitness (ln)” value is -1.87 ± 0.41.
For ACGCAGCAAUAUUACGAACG, the “self-splicing fitness (ln)” value runs as follows: (30 °C) -0.387 ± 0.076; (37 °C) -0.234 ± 0.091.
As for CUAUAGCAAUAUUACGCUAC, the “self-splicing fitness (ln)” value was -3.66 ± 0.17 (30 °C) and -2.98 ± 0.2 (37 °C).
For CCCAAGCAAUAUUACGUUUA the same measures were -3.62 ± 0.14 and -3.04 ± 0.18.
With ACAGAGCAAUAUUACGAGGG, the “self-splicing fitness (ln)” value (30 °C) was -2.31 ± 0.14 and the “self-splicing fitness (ln)” value (37 °C) is -2.35 ± 0.24.
Take GUUAAGCAAUAUUACGAACG: the “self-splicing fitness (ln)” value (30 °C) is -2.01 ± 0.28 and the “self-splicing fitness (ln)” value (37 °C) was -1.16 ± 0.31.
UUGCAGCAAUAUUACGUCUA: the “self-splicing fitness (ln)” value was -0.361 ± 0.11 (30 °C) and -0.0705 ± 0.11 (37 °C).
The like results for UGAGAGCAAUAUUACGUAGA were, in that order, -2.94 ± 0.33 and -1.28 ± 0.35.
On to CUGUAGCAAUAUUACGUUGU, for which the “self-splicing fitness (ln)” value (30 °C) is -3.59 ± 0.25 and the “self-splicing fitness (ln)” value (37 °C) was -4.02 ± 0.33.
